Where no end group is shown, it is not given here. The star is where a group is joined. Biotin = O=C1N[C@H]2[C@H](CS[C@H]2CCCCC(=O)*)N1
T1: biotinylated BC2 tag peptide QGQSGQPDRKAAVSHWQ
T1 construct: Synthesized at ELIM Biopharmaceuticals; loaded on SSA biosensor tips at 100 nM; also called free BC2T peptide; the peptide
T1 peptide: Biotin-QGQSGQPDRKAAVSHWQ

B1: ProC649 (PP073), single-domain antibody (nanobody) with no MM attached, with His tag (VHH)
VHH: QVQLVESGGGLVQPGGSLTLSCTASGFTLDHYDIGWFRQAPGKEREGVSCINNSDDDTYYADSVKGRFTIFMNNAKDTVYLQMNSLKPEDTAIYYCAEARGCKRGRYEYDFWGQGTQVTVSS
notes: Monomer; also called unmasked nanobody; unmasked control
B2: ProC654 (PP078), single-anchored BC2T-Nb: BC2 tag-PLGLAG-Nanobody, intact (VHH)
chain: QGQSGQPDRKAAVSHWQQGGGSSGGSPLGLAGGGGSQVQLVESGGGLVQPGGSLTLSCTASGFTLDHYDIGWFRQAPGKEREGVSCINNSDDDTYYADSVKGRFTIFMNNAKDTVYLQMNSLKPEDTAIYYCAEARGCKRGRYEYDFWGQGTQVTVSSGGSHHHHHHHHHH
notes: Monomer, uncleaved (masked) form; also called single-domain antibody with MM attached with a CM PLGLAG
B3: ProC653 (PP077), single-anchored BC2T-Nb: BC2 tag-1490DNI-Nanobody, intact (VHH)
chain: QGQSGQPDRKAAVSHWQQGGGSSGGSISSGLLSGRSDNIGGGSQVQLVESGGGLVQPGGSLTLSCTASGFTLDHYDIGWFRQAPGKEREGVSCINNSDDDTYYADSVKGRFTIFMNNAKDTVYLQMNSLKPEDTAIYYCAEARGCKRGRYEYDFWGQGTQVTVSSGGSHHHHHHHHHH
notes: Monomer, uncleaved (masked) form; also called single-domain antibody with MM attached with a CM 1490DNI

Experiments:
[1] = target: T1, biotinylated BC2 tag peptide …; test: BLI (ForteBio Octet), biotinylated peptide on SSA biosensor tips, 100 nM Nb
Experimental: (§1) Binding of the unmasked nanobody and single-anchored BC2T-Nb to free BC2T peptide was assessed by BLI using the ForteBio Octet device. While BLI is generally used to calculate association and dissociation kinetics of binding interactions, it was used herein to detect binding Peptide corresponding to the following sequence: […] (SEQ ID NO: 567) was synthesized at ELIM Biopharmaceuticals with a biotin at the N-terminus. The peptide was loaded on SSA biosensor tips (Pall/ForteBio Cat #18-5117) at 100 nM in Binding Buffer (BB: 1×PBS, pH 7.2, 5% glycerol, 0.1% Tween-20, 2% BSA) for 10 minutes. Baseline incubation in BB for 1 min before and after this capture step were used to confirm protein capture. The loaded tips were then incubated in 100 nM Nb in BB for 6 minutes followed by incubation in BB for 6 minutes. Changes in interference distance (nanometers) at the sensor tip are plotted against time to follow the binding/dissociation of soluble proteins from the immobilized ligand on the tip (FIG. 7).

[2] = target: T1, biotinylated BC2 tag peptide …; test: BLI (ForteBio Octet), biotinylated peptide on SSA biosensor tips
Experimental: Intact ProC653 and ProC654 show no binding to the biotinylated BC2 tag peptide, but binding was recovered upon activation with either MMP14 or MMP9, respectively.
as §1

Binder	binding result [1]	binding result [2]
B1	binds	–
B2	–	no binding (tested: 100 nM)
B3	–	no binding (tested: 100 nM)

From patent US20250333487A1 (CYTOMX THERAPEUTICS, published 2025)
